Consider one substance from patent US11311631B2, “Paclitaxel-albumin-binding agent compositions and methods for using and making the same” (Mayo Foundation for Medical Education and Research, priority 2016, dated 2022).

The assay addresses T1, CD20+ Daudi lymphoma cells (Homo sapiens, UniProt P11836).
T1 construct: co-incubated with CD20+ Daudi lymphoma cells for 30 minutes at room temperature; endogenous in cells; host or cells: Daudi lymphoma cells
T1 sequence (P11836 1-297): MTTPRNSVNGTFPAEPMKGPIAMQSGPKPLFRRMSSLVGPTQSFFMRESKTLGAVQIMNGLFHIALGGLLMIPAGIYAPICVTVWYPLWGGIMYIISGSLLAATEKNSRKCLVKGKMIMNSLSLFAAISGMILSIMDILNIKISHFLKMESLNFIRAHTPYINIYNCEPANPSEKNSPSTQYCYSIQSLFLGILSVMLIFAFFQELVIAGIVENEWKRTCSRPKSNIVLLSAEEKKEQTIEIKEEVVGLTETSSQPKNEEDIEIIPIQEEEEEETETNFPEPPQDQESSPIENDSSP
Description: Daudi cell CD20 blocking (subsequent PE anti-human CD20 staining). The note with it: co-incubated with CD20+ Daudi cells 30 minutes at room temperature. The format is cell-based. The protocol:
[…] show blocking of CD20-positive Daudi cells with isotype control (FIG. 5A), anti-CD20 antibody (FIG. 5B), ABRAXANE® (FIG. 5C), AR160 (FIG. 5D), NTP (FIG. 5E), rituximab-bound NTP (NTRit; FIG. 5F), or rituximab alone (FIG. 5G).
ABX, AR160, Non-toxic nanoparticle (NTP) and rituximab-bound NTP were prepared as described above or previously (see, e.g., PCT Pub. No. WO2014/055415, which is incorporated herein by reference in its entirety). The nanoparticles and unlabeled rituximab were co-incubated with CD20+ Daudi lymphoma cells for 30 minutes at room temperature. The cells were washed and subsequently stained with PE anti-human CD20. Isotype (FIG. 5A) and anti-CD20 (FIG. 5B) stained cells served as negative and positive controls, respectively.

Turning to rituximab: anti-CD20 antibody (Rituxan), the “blocking of subsequent binding of PE anti-human CD20” value is listed as “block subsequent binding of PE anti-human CD20”.
